Patent US20150344570A1 (published 2015)

Legend:
[1] = biological target: T1, FcγRIa (human, UniProt P12314 16-292); experiment: SPR (Biacore); Ho Ab relative to HoCon Ab = 100
T1 construct: extracellular domain; also called FcgRI; 1a
Summary of the method: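 FcγR flowed over antibodies bound to immobilized antigen peptide (CM5 or SA chip), 25° C, HBS-EP+.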

[2] = biological target: T1, FcγRIa; experiment: SPR (Biacore); He Ab relative to HeCon Ab = 100
Protocol: Analysis of interaction between objective antibody and the FcγR was carried out using Biacore T100 (GE Healthcare). HBS-EP+ (GE Healthcare) was used as the running buffer, and the measurement temperature was set to 25° C. Chips produced by immobilizing the antigen peptide by the amine coupling method to a Series S Sencor Chip CM5 (GE Healthcare), or alternatively, chips produced by allowing preliminarily biotinylated antigen peptides to interact with and immobilize onto a Series S Sensor Chip SA (certified) (GE Healthcare) were used. Antibodies of interest were captured onto an antigen peptide-immobilized chip, and allowed to interact to each FcγR diluted with running buffer. To regenerate and repeatedly use the chip, the antibodies captured on the chip were washed off by reacting 10 mM glycine-HCl, pH 1.5.

T1 sequence (P12314 16-292): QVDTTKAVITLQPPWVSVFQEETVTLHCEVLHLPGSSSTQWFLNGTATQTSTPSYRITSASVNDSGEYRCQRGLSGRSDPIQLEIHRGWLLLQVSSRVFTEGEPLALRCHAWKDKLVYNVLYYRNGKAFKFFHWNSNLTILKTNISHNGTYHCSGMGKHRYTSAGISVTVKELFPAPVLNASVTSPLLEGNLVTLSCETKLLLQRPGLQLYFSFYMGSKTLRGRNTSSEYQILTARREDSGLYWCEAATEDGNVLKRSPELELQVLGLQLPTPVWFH

B1: GpH7-B3 variant P238_10E/GpL16-k0 (antibody, human IgG1, kappa)
heavy: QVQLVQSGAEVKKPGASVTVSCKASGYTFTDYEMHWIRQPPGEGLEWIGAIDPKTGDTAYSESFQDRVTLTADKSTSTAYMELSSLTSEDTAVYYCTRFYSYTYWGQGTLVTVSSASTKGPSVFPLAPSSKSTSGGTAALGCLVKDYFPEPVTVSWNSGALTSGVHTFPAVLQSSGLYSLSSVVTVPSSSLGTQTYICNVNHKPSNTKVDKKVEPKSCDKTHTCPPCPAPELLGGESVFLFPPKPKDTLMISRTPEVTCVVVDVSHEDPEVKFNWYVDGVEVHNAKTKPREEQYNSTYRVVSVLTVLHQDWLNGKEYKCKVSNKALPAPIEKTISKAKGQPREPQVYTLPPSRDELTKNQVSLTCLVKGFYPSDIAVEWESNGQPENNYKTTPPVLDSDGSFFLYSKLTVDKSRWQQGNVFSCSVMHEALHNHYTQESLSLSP
light: DIVMTQSPLSLPVTPGEPASISCQASESLVHSNRNTYLHWYLQKPGQSPQLLIYKVSNRFSGVPDRFSGSGSGTDFTLKISRVEAEDVGVYYCSQNTHVPPTFGQGTKVEIERTVAAPSVFIFPPSDEQLKSGTASVVCLLNNFYPREAKVQWKVDNALQSGNSQESVTEQDSKDSTYSLSSTLTLSKADYEKHKVYACEVTHQGLSSPVTKSFNRGEC
notes: also called Ho Ab P238_10E
Ho/Con_1a [1]: 91.8 % of control

B2: GpH7-A5/GpH7-B3 variant E269_01G/GpL16-k0 (antibody, human IgG1, kappa)
heavy 1: not shown
heavy 2: not shown
light: B1 light
notes: also called He Ab E269_01G
He/Con_1a [2]: 104 % of control

B3: GpH7-B3 variant P271_14T/GpL16-k0 (antibody, human IgG1, kappa)
heavy: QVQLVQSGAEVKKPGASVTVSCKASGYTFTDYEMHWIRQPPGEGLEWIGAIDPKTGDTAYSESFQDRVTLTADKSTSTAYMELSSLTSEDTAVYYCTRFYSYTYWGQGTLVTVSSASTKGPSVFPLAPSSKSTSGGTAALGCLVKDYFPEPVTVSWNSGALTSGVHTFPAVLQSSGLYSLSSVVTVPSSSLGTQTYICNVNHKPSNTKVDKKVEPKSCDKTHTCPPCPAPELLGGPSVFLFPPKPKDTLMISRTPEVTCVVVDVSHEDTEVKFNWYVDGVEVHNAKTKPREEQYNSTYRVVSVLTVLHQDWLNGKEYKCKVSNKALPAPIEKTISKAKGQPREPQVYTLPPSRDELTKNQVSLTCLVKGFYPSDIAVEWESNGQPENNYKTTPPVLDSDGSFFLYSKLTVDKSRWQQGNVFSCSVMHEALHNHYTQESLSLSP
light: B1 light
notes: also called Ho Ab P271_14T
Ho/Con_1a [1]: 99.5 % of control

B4: GpH7-A5/GpH7-B3 variant A327_06M/GpL16-k0 (antibody, human IgG1, kappa)
heavy 1: not shown
heavy 2: not shown
light: B1 light
notes: also called He Ab A327_06M
He/Con_1a [2]: 103 % of control

B5: GpH7-A5/GpH7-B3 variant E333_07I/GpL16-k0 (antibody, human IgG1, kappa)
heavy 1: not shown
heavy 2: not shown
light: B1 light
notes: also called He Ab E333_07I
He/Con_1a [2]: 102 % of control

B6: GpH7-B3 variant Q295_11K/GpL16-k0 (antibody, human IgG1, kappa)
heavy: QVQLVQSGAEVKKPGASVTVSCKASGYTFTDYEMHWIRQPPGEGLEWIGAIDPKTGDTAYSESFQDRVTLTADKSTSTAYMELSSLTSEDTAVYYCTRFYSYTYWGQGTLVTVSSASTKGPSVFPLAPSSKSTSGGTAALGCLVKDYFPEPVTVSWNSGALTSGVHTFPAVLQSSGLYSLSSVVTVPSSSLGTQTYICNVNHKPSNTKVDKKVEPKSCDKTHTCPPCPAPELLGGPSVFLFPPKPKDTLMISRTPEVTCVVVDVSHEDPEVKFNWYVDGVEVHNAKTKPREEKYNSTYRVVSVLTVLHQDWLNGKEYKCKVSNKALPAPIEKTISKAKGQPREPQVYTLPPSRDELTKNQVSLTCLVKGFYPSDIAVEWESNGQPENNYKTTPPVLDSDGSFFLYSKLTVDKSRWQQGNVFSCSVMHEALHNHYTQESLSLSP
light: B1 light
notes: also called Ho Ab Q295_11K
Ho/Con_1a [1]: 99.9 % of control

B7: GpH7-A5/GpH7-B3 variant E269_06M/GpL16-k0 (antibody, human IgG1, kappa)
heavy 1: not shown
heavy 2: not shown
light: B1 light
notes: also called He Ab E269_06M
He/Con_1a [2]: 104 % of control

B8: GpH7-B3 variant Q295_16H/GpL16-k0 (antibody, human IgG1, kappa)
heavy: not shown
light: B1 light
notes: also called Ho Ab Q295_16H
Ho/Con_1a [1]: 99.1 % of control

B9: GpH7-A5/GpH7-B3 variant E269_18N/GpL16-k0 (antibody, human IgG1, kappa)
heavy 1: not shown
heavy 2: not shown
light: B1 light
notes: also called He Ab E269_18N
He/Con_1a [2]: 102 % of control

B10: GpH7-A5/GpH7-B3 variant E269_04F/GpL16-k0 (antibody, human IgG1, kappa)
heavy 1: not shown
heavy 2: not shown
light: B1 light
notes: also called He Ab E269_04F
He/Con_1a [2]: 103 % of control

B11: GpH7-B3 variant P271_16H/GpL16-k0 (antibody, human IgG1, kappa)
heavy: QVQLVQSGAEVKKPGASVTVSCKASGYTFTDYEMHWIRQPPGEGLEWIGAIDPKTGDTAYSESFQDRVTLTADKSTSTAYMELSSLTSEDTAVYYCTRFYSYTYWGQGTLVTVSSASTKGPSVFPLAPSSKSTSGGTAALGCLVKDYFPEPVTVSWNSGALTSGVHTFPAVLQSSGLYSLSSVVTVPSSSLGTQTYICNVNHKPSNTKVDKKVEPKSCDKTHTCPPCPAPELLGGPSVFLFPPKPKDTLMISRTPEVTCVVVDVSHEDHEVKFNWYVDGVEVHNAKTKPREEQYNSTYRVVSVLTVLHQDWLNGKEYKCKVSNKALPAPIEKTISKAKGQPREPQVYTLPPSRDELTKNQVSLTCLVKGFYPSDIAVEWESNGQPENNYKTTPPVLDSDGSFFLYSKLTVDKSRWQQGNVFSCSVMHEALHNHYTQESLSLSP
light: B1 light
notes: also called Ho Ab P271_16H
Ho/Con_1a [1]: 99.4 % of control

B12: GpH7-A5/GpH7-B3 variant E269_20W/GpL16-k0 (antibody, human IgG1, kappa)
heavy 1: not shown
heavy 2: not shown
light: B1 light
notes: also called He Ab E269_20W
He/Con_1a [2]: 105 % of control

B13: GpH7-A5/GpH7-B3 variant E269_14T/GpL16-k0 (antibody, human IgG1, kappa)
heavy 1: not shown
heavy 2: not shown
light: B1 light
notes: also called He Ab E269_14T
He/Con_1a [2]: 106 % of control

B14: GpH7-A5/GpH7-B3 variant E269_09D/GpL16-k0 (antibody, human IgG1, kappa)
heavy 1: not shown
heavy 2: not shown
light: B1 light
notes: also called He Ab E269_09D
He/Con_1a [2]: 107 % of control

B15: GpH7-A5/GpH7-B3 variant A327_03V/GpL16-k0 (antibody, human IgG1, kappa)
heavy 1: not shown
heavy 2: not shown
light: B1 light
notes: also called He Ab A327_03V
He/Con_1a [2]: 103 % of control

B16: GpH7-A5/GpH7-B3 variant E269_15Y/GpL16-k0 (antibody, human IgG1, kappa)
heavy 1: not shown
heavy 2: not shown
light: B1 light
notes: also called He Ab E269_15Y
He/Con_1a [2]: 106 % of control

B17: GpH7-A5/GpH7-B3 variant A327_07I/GpL16-k0 (antibody, human IgG1, kappa)
heavy 1: not shown
heavy 2: not shown
light: B1 light
notes: also called He Ab A327_07I
He/Con_1a [2]: 104 % of control

B18: GpH7-A5/GpH7-B3 variant A327_13S/GpL16-k0 (antibody, human IgG1, kappa)
heavy 1: not shown
heavy 2: not shown
light: B1 light
notes: also called He Ab A327_13S
He/Con_1a [2]: 102 % of control

B19: GpH7-A5/GpH7-B3 variant E269_16H/GpL16-k0 (antibody, human IgG1, kappa)
heavy 1: not shown
heavy 2: not shown
light: B1 light
notes: also called He Ab E269_16H
He/Con_1a [2]: 106 % of control

B20: GpH7-A5/GpH7-B3 variant A327_10E/GpL16-k0 (antibody, human IgG1, kappa)
heavy 1: not shown
heavy 2: not shown
light: B1 light
notes: also called He Ab A327_10E
He/Con_1a [2]: 103 % of control

B21: GpH7-A5/GpH7-B3 variant E333_03V/GpL16-k0 (antibody, human IgG1, kappa)
heavy 1: not shown
heavy 2: not shown
light: B1 light
notes: also called He Ab E333_03V
He/Con_1a [2]: 105 % of control

B22: GpH7-B3 variant P271_03V/GpL16-k0 (antibody, human IgG1, kappa)
heavy: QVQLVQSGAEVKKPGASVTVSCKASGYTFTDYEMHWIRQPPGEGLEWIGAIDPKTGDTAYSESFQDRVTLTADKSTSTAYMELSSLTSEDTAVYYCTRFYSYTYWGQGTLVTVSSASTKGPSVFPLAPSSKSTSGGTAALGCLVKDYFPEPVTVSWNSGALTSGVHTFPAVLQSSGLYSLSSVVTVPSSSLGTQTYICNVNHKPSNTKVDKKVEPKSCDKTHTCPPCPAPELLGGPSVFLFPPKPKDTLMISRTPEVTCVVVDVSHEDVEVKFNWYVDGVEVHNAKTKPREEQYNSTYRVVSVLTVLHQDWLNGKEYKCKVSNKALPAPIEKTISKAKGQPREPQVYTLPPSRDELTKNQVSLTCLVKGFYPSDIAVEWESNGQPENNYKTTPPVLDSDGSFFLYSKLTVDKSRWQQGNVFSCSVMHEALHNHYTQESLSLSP
light: B1 light
notes: also called Ho Ab P271_03V
Ho/Con_1a [1]: 102 % of control

B23: GpH7-A5/GpH7-B3 variant A330_11K/GpL16-k0 (antibody, human IgG1, kappa)
heavy 1: not shown
heavy 2: not shown
light: B1 light
notes: also called He Ab A330_11K
He/Con_1a [2]: 103 % of control

B24: GpH7-A5/GpH7-B3 variant A330_14T/GpL16-k0 (antibody, human IgG1, kappa)
heavy 1: not shown
heavy 2: not shown
light: B1 light
notes: also called He Ab A330_14T
He/Con_1a [2]: 105 % of control

B25: GpH7-A5/GpH7-B3 variant E333_11K/GpL16-k0 (antibody, human IgG1, kappa)
heavy 1: not shown
heavy 2: not shown
light: B1 light
notes: also called He Ab E333_11K
He/Con_1a [2]: 102 % of control

B26: GpH7-A5/GpH7-B3 variant E269_13S/GpL16-k0 (antibody, human IgG1, kappa)
heavy 1: not shown
heavy 2: not shown
light: B1 light
notes: also called He Ab E269_13S
He/Con_1a [2]: 103 % of control

B27: GpH7-A5/GpH7-B3 variant E269_05P/GpL16-k0 (antibody, human IgG1, kappa)
heavy 1: not shown
heavy 2: not shown
light: B1 light
notes: also called He Ab E269_05P
He/Con_1a [2]: 102 % of control

B28: GpH7-A5/GpH7-B3 variant A330_08L/GpL16-k0 (antibody, human IgG1, kappa)
heavy 1: not shown
heavy 2: not shown
light: B1 light
notes: also called He Ab A330_08L
He/Con_1a [2]: 107 % of control

B29: GpH7-A5/GpH7-B3 variant E269_19Q/GpL16-k0 (antibody, human IgG1, kappa)
heavy 1: not shown
heavy 2: not shown
light: B1 light
notes: also called He Ab E269_19Q
He/Con_1a [2]: 105 % of control

B30: GpH7-A5/GpH7-B3 variant E333_12R/GpL16-k0 (antibody, human IgG1, kappa)
heavy 1: not shown
heavy 2: not shown
light: B1 light
notes: also called He Ab E333_12R
He/Con_1a [2]: 102 % of control

B31: GpH7-A5/GpH7-B3 variant E333_06M/GpL16-k0 (antibody, human IgG1, kappa)
heavy 1: not shown
heavy 2: not shown
light: B1 light
notes: also called He Ab E333_06M
He/Con_1a [2]: 102 % of control

B32: GpH7-A5/GpH7-B3 variant E269_03V/GpL16-k0 (antibody, human IgG1, kappa)
heavy 1: not shown
heavy 2: not shown
light: B1 light
notes: also called He Ab E269_03V
He/Con_1a [2]: 103 % of control

B33: GpH7-A5/GpH7-B3 variant A330_05P/GpL16-k0 (antibody, human IgG1, kappa)
heavy 1: not shown
heavy 2: not shown
light: B1 light
notes: also called He Ab A330_05P
He/Con_1a [2]: 101 % of control

B34: GpH7-B3 variant Q295_09D/GpL16-k0 (antibody, human IgG1, kappa)
heavy: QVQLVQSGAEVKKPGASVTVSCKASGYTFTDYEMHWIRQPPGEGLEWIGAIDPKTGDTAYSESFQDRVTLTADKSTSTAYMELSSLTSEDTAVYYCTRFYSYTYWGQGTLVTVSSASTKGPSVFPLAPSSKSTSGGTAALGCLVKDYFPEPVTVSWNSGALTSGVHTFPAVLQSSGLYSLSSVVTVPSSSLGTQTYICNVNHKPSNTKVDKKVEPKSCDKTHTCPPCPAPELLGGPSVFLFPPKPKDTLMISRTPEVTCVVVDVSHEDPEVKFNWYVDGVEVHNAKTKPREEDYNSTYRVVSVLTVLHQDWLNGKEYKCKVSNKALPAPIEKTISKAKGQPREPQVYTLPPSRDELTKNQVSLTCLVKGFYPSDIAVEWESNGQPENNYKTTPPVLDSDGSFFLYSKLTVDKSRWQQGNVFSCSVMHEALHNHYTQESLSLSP
light: B1 light
notes: also called Ho Ab Q295_09D
Ho/Con_1a [1]: 96.8 % of control

B35: GpH7-A5/GpH7-B3 variant E269_07I/GpL16-k0 (antibody, human IgG1, kappa)
heavy 1: not shown
heavy 2: not shown
light: B1 light
notes: also called He Ab E269_07I
He/Con_1a [2]: 103 % of control

B36: GpH7-A5/GpH7-B3 variant E269_08L/GpL16-k0 (antibody, human IgG1, kappa)
heavy 1: not shown
heavy 2: not shown
light: B1 light
notes: also called He Ab E269_08L
He/Con_1a [2]: 104 % of control

B37: GpH7-A5/GpH7-B3 variant E333_01G/GpL16-k0 (antibody, human IgG1, kappa)
heavy 1: not shown
heavy 2: not shown
light: B1 light
notes: also called He Ab E333_01G
He/Con_1a [2]: 103 % of control

B38: GpH7-A5/GpH7-B3 variant A330_09D/GpL16-k0 (antibody, human IgG1, kappa)
heavy 1: not shown
heavy 2: not shown
light: B1 light
notes: also called He Ab A330_09D
He/Con_1a [2]: 109 % of control

B39: GpH7-A5/GpH7-B3 variant A330_16H/GpL16-k0 (antibody, human IgG1, kappa)
heavy 1: not shown
heavy 2: not shown
light: B1 light
notes: also called He Ab A330_16H
He/Con_1a [2]: 106 % of control

B40: GpH7-A5/GpH7-B3 variant E333_09D/GpL16-k0 (antibody, human IgG1, kappa)
heavy 1: not shown
heavy 2: not shown
light: B1 light
notes: also called He Ab E333_09D
He/Con_1a [2]: 104 % of control

B41: GpH7-B3 variant P238_15Y/GpL16-k0 (antibody, human IgG1, kappa)
heavy: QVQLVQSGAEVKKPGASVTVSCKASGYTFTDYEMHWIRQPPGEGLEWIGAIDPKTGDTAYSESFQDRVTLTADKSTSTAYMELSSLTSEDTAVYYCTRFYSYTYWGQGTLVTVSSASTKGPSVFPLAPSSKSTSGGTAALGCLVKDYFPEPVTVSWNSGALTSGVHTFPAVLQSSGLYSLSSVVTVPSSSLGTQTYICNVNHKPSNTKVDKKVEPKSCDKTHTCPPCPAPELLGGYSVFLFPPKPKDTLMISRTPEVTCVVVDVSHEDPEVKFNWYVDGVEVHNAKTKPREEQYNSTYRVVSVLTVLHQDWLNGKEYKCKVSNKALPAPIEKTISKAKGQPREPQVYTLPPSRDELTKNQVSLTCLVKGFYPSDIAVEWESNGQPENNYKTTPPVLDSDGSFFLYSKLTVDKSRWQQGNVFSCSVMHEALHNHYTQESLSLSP
light: B1 light
notes: also called Ho Ab P238_15Y
Ho/Con_1a [1]: 99 % of control

B42: GpH7-B3 variant P271_02A/GpL16-k0 (antibody, human IgG1, kappa)
heavy: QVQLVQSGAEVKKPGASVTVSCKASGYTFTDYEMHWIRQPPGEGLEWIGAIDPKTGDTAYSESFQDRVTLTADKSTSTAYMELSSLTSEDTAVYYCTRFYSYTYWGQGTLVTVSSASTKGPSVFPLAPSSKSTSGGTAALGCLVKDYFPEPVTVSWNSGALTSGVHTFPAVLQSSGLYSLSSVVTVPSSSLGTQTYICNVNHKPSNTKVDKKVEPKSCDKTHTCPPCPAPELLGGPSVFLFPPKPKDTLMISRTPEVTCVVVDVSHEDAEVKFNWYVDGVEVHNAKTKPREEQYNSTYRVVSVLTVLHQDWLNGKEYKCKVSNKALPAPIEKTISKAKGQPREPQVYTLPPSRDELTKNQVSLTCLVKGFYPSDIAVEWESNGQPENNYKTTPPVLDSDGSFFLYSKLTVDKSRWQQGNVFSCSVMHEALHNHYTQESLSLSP
light: B1 light
notes: also called Ho Ab P271_02A
Ho/Con_1a [1]: 102 % of control

B43: GpH7-A5/GpH7-B3 variant E333_08L/GpL16-k0 (antibody, human IgG1, kappa)
heavy 1: not shown
heavy 2: not shown
light: B1 light
notes: also called He Ab E333_08L
He/Con_1a [2]: 102 % of control

B44: GpH7-A5/GpH7-B3 variant E333_04F/GpL16-k0 (antibody, human IgG1, kappa)
heavy 1: not shown
heavy 2: not shown
light: B1 light
notes: also called He Ab E333_04F
He/Con_1a [2]: 102 % of control

B45: GpH7-A5/GpH7-B3 variant E333_02A/GpL16-k0 (antibody, human IgG1, kappa)
heavy 1: not shown
heavy 2: not shown
light: B1 light
notes: also called He Ab E333_02A
He/Con_1a [2]: 103 % of control

B46: GpH7-A5/GpH7-B3 variant E269_02A/GpL16-k0 (antibody, human IgG1, kappa)
heavy 1: not shown
heavy 2: not shown
light: B1 light
notes: also called He Ab E269_02A
He/Con_1a [2]: 104 % of control

B47: GpH7-B3 variant P329_02A/GpL16-k0 (antibody, human IgG1, kappa)
heavy: not shown
light: B1 light
notes: also called Ho Ab P329_02A
Ho/Con_1a [1]: 98.2 % of control

B48: GpH7-B3 variant P329_01G/GpL16-k0 (antibody, human IgG1, kappa)
heavy: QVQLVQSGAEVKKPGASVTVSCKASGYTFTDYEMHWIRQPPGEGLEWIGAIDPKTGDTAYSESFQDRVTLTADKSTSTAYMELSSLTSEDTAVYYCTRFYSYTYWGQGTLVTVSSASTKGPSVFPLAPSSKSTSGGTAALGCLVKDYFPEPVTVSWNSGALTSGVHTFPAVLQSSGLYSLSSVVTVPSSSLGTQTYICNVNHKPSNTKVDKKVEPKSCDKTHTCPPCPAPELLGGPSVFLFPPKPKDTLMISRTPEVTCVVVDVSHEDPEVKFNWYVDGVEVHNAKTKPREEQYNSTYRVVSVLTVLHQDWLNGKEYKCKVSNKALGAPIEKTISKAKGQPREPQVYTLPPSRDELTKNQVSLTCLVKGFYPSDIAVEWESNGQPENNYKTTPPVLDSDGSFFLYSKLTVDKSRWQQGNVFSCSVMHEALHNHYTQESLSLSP
light: B1 light
notes: also called Ho Ab P329_01G
Ho/Con_1a [1]: 89.5 % of control

B49: GpH7-B3 variant Q295_15Y/GpL16-k0 (antibody, human IgG1, kappa)
heavy: not shown
light: B1 light
notes: also called Ho Ab Q295_15Y
Ho/Con_1a [1]: 97 % of control

B50: GpH7-A5/GpH7-B3 variant A327_09D/GpL16-k0 (antibody, human IgG1, kappa)
heavy 1: not shown
heavy 2: not shown
light: B1 light
notes: also called He Ab A327_09D
He/Con_1a [2]: 103 % of control

B51: GpH7-A5/GpH7-B3 variant E333_05P/GpL16-k0 (antibody, human IgG1, kappa)
heavy 1: not shown
heavy 2: not shown
light: B1 light
notes: also called He Ab E333_05P
He/Con_1a [2]: 102 % of control

B52: GpH7-B3 variant P271_15Y/GpL16-k0 (antibody, human IgG1, kappa)
heavy: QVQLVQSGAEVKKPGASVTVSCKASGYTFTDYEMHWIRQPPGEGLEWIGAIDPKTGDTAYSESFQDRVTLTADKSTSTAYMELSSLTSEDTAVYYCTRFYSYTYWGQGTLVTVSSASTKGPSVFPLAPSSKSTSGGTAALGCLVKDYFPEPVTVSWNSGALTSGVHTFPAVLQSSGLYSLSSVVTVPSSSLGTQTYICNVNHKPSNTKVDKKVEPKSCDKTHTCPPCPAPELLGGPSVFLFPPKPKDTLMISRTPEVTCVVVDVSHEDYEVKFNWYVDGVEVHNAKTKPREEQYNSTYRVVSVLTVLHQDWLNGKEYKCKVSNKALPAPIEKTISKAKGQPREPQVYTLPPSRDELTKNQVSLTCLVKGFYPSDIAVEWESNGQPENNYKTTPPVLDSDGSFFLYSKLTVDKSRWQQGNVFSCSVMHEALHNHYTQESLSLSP
light: B1 light
notes: also called Ho Ab P271_15Y
Ho/Con_1a [1]: 99.4 % of control
